Experimental findings from article PMC9745132, “Visualization of real-time receptor endocytosis in dopamine neurons enabled by NTSR1-Venus knock-in mice” (Frontiers in Cellular Neuroscience, 2022) are described below.

Structures can show the parent of a compound that is named as a salt.

The subject of test [1] is hippocampal neurons from Ntsr1^WT/WT mice. In words: Intracellular calcium release (Fluo-4) in hippocampal neurons from Ntsr1^WT/WT mice. Format: cell-based, mouse. The note with it: 1 μM, maximal calcium response control.
In test [2] the test system is hippocampal neurons from Ntsr1^Venus/Venus mice. In words: Intracellular calcium release (Fluo-4) in hippocampal neurons from Ntsr1^Venus/Venus mice. Format: cell-based, mouse. The note with it: 1 μM, maximal calcium response control. The protocol:
To isolate hippocampal neurons, P0 pups were removed from the cage of NTSR1-Venus homozygous knock-in breeding pairs. Pups were decapitated, brains were removed dorsal side up into fresh ice-cold Hank’s balanced salt solution (HBSS; Gibco, Grand Island, NY, USA), meninges were removed, and hippocampi were dissected into Hibernate A (Gibco, Grand Island, NY, USA) on ice. Tissue dissociation was carried out with the Papain Dissociation System according to the manufacturer’s protocol (Worthington Biochemical Corporation, Lakewood, NJ, USA). Neurons were plated on Poly-D-Lysine (Sigma) coated surfaces at 100,000 cells per 12 mm coverslip (NeuVitro, Camas, WA, USA) in a 24-well plate for immunostaining or 50,000 cells per well of an 8 well chamber slide (Ibidi, Grafelfing, Germany) for calcium measurements. Plating media [Neurobasal A (Gibco, Grand Island, NY, USA), 1% FBS (Fisher Scientific), 2% B-27 (Gibco, Grand Island, NY, USA), 0.5 mM GlutaMAX (Gibco, Grand Island, NY, USA), and 1x Penicillin/Streptomycin (Invitrogen, Waltham, MA, USA)] was exchanged 1 h after plating to maintenance media (Neurobasal A, 2% B-27, 0.5 mM GlutaMAX, and 1x Penicillin/Streptomycin). Half of the volume of media was exchanged for fresh media every 3–4 days. On day in vitro (DIV) 3 Cytosine arabinoside hydrochloride (Sigma) was added to media with a final concentration of 0.1 μM to decrease glial cell proliferation.
Hippocampal neurons were grown until DIV 7. Fluo-4 NW Calcium Assay kit (Thermo Fisher) was used according to the manufacturer’s protocol. Briefly, drugs were prepared at 4 μM stock solutions in the assay buffer provided without probenecid. […] Fluorescence was imaged with a 10x objective on an (Olympus, Shinjuku City, Tokyo, Japan) IX73 microscope (Fluo-4 em. 506 nm).
Live imaging settings of Fluo-4 were as follows, 79 ms exposure, 2 s intervals for 90 cycles (180 s). […] First regions of interest (ROI) were automatically determined using the analyze particles plug in. […] Relative fluorescence is defined as F/F0 where F corresponds to the cell fluorescence and F0 to the basal fluorescence.

The next test has as its target T1, NTSR1-Venus (Mus musculus, UniProt O88319).
T1 construct: monitoring endogenous NTSR1-Venus receptor endocytosis could differentiate NTSR1 agonists; endogenous in cells; host or cells: primary hippocampal neurons from homozygous NTSR1-Venus knock-in mice (C57BL/6N background)
Put plainly: Multiphoton imaging of NTSR1-Venus internalization in acute SN/VTA brain slices. It counts as cell-based. The note with it: 1 μM during slice recovery and imaging, 60 min. On the procedure: Male and female Ntsr1^Venus/Venus mice aged 5 weeks were anesthetized, and 250 μm-thick coronal slices containing substantia nigra pars compacta and ventral tegmental area were prepared. Cutting solution contained (in mM): 87 NaCl, 25 NaHCO3, 25 glucose, 75 sucrose, 2.5 KCl, 1.25 NaH2PO4, 0.5 CaCl2, and 7 MgCl2; bubbled with 5% CO2/95%O2; 4°C. Following cutting, slices were incubated in the same solution for 30 min at 33°C. For control experiments, slices were subsequently incubated in the same solution at room temperature until imaging. For antagonist experiments, slices were subsequently incubated in cutting solution with 1 μM SR48962 until imaging. SR48962 was prepared as a 1 mM stock in water.
Imaging solution referred to as aCSF contained (in mM): 125 NaCl, 2.5 KCl, 2 CaCl2, 1 MgCl2, 25 NaHCO3, 1.25 NaH2PO4, 25 glucose; bubbled with 5% CO2/95% O2; 31–34°C, ∼310 mOsm. For antagonist-only experiments, 1 μM SR48962 was added to the imaging solution. For antagonist plus agonist experiments, a baseline image was taken with no NTSR1 agonist or antagonist in the imaging solution, and subsequently, 10 μM PD149163 [prepared from a stock solution in water] was added to the imaging solution. As a precautionary measure, all components that were exposed to antagonist were rinsed first with 70% ethanol and then water. All components that were exposed to agonist were replaced between experiments.
For two-photon laser scanning microscopy (2PLSM), a 2-photon source (Coherent Ultra II, Santa Clara, CA, USA) was tuned to 920 nm for imaging. […] Both epi and transfluorescence were detected with R9110 photomultiplier tubes (Hamamatsu, Shizuoka, Japan). Laser power measured at the focal plane under the objective was between 8 and 34 mW. […]
To test whether NTSR1 receptors are indeed being bound by endogenous ligand in acute slice, we compared NTSR1 distribution in slices treated with the NTSR1 specific antagonist, SR48692 ([Gully et al., 1993]). […] NTSR1-Venus puncta were then quantified in the acquired image projections by counting vesicle-sized particles (Figure 5E). […]

For test [3], the target named is NTSR1-Venus (knock-in receptor of Ntsr1 Venus/Venus mice) (mouse) (UniProt O88319).
The target in test [4] is NTSR1-RlucII (mouse) (UniProt O88319).
For test [5], the target named is mouse NTSR1 (untagged) (mouse) (UniProt O88319).
The target in test [6] is NTSR1-RlucII (mouse) (UniProt O88319). The source holds these as a separate data set.
In test [7] the target is NTSR1-Venus (transfected construct) (mouse) (UniProt O88319).
Chain of NTSR1-Venus (transfected construct) (mouse) (O88319 whole entry): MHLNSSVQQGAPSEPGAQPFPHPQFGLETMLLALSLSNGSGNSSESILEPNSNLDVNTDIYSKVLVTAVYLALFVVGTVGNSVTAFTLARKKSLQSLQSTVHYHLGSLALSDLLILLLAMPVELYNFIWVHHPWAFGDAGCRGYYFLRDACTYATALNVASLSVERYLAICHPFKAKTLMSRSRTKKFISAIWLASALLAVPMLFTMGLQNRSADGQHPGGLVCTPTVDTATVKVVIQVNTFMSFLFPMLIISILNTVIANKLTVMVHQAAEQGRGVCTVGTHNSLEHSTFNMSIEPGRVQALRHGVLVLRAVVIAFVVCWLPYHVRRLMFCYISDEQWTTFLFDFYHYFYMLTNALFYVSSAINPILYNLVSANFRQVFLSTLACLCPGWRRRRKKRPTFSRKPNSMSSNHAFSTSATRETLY

Chain of NTSR1-Venus (knock-in receptor of Ntsr1 Venus/Venus mice) (mouse) (O88319 whole entry): as above
Chain of NTSR1-RlucII (mouse) (O88319 whole entry): as above
T1 sequence (O88319 whole entry): as above
Chain of mouse NTSR1 (untagged) (mouse) (O88319 whole entry): as above

As for `C[C@H](CCC(=O)O)C[C@H](C)C[C@H](C)C(=O)/C=C(\O)[C@H](C)C[C@H](C)C/C=C/[C@@H](C)[C@@H](O)[C@@H](C)[C@@H](O)C[C@@H]1CC[C@@](C)([C@H]2CC[C@@](C)([C@@H](C)O)O2)O1` [Ionomycin, Ionomycin calcium salt from Streptomyces conglobatus], the calcium increase in test [1] and in test [2] was 3 fold throughout.
Consider `COc1cccc(OC)c1-c1cc(C(=O)NC2(C(=O)O)C3CC4CC(C3)CC2C4)nn1-c1ccnc2cc(Cl)ccc12` (stereo not drawn) [SR48692], for which the “NTSR1-Venus puncta across imaging time” value on NTSR1-Venus is “trend of decreasing puncta across imaging time”.
Take “Neurotensin (from UniProt P30990 151-163) (peptide)”: in test [3], the NTSR1-Venus endocytosis in primary hippocampal neurons (ratio of Venus and EEA1 positive to total EEA1 positive endosomes), dose-response after 5 min of agonist; EC50 came to 4.03 nM; the NTSR1-Venus redistribution to EEA1 endosomes in primary hippocampal neurons, 1 uM neurotensin, time course 0-60 min; % EEA1 vesicles with Venus (value at 5 min) stood at 98.5%. Besides, in the test with NTSR1-RlucII (mouse) [4], the NTSR1-RlucII internalization in HEK293 cells (decrease in ebBRET between NTSR1-RlucII and rGFP-CAAX), concentration-response; potency as told in the text came out at 5.89 nM. In addition, the Gq activation in HEK293 cells (ebBRET between p63RhoGEF-RlucII and rGFP-CAAX, EMTA), concentration-response; potency LogEC50 in test [5] was -8.97 LogEC50 (M). In addition, the NTSR1-RlucII internalization in HEK293 cells (decrease in ebBRET between NTSR1-RlucII and rGFP-CAAX), concentration-response; potency LogEC50 with NTSR1-RlucII (mouse) [6] is -8.07 LogEC50 (M). Also, in test [7], the Gq activation in HEK293 cells (ebBRET between p63RhoGEF-RlucII and rGFP-CAAX, EMTA), concentration-response; potency LogEC50 was -8.78 LogEC50 (M).
